Measured values reported in patent publication EP2433948A1, “Use of a new class of nucleotide sugar as antibiotic or cytostatic agent” (Max-Planck-Gesellschaft zur Förderung der Wissenschaften …, priority 2010, dated 2012).

Substrate: CC(=O)N[C@H]1[C@@H](OP(=O)(O)OP(=O)(O)OC[C@H]2O[C@@H](n3ccc(=O)[nH]c3=O)[C@H](O)[C@@H]2O)O[C@H](CO)[C@@H](O)[C@@H]1O
Assay: MurA activity/inhibition assay (phosphate release coupled to PNPase cleavage of fluorescent 7-methylguanosine)
Type: biochemical, E. coli
Details: other: 0.5 µM MurA, 1 mM phosphoenolpyruvate; best fit parameter of global fit; same as reported in literature; pH 7.5
Text: • (a) MurA performs the first step of UDP-muramic acid biosynthesis. After sequential binding of UNAG and phosphoenolpyruvate, a tetrahedral intermediate is formed that yields enolpyruvyl-UNAG after cleavage of inorganic phosphate. UNAG-3P most likely mimics this tetrahedral intermediate and thereby inhibits MurA catalysis by a competitive binding mechanism. (b) Determination of the Ki of UNAG-3P for MurA. Enolpyruvyl-UNAG formation catalyzed by MurA from E. coli in presence of PEP and UNAG-3P and varying UNAG concentrations under steady state conditions. MurA enzyme kinetics were followed by coupling the reaction to phosphate dependent cleavage of fluorescent 7-methylguanosine by nucleoside phosphorylase resulting in a strong decrease of the fluorescence at 400 nm (λexc = 300 nm). The UNAG-3P concentrations for each saturation curve were 0 µM (●), 15 µM (□) and 30 µM (Δ). A Lineweaver-Burk plot is shown as inset.
The enolpyruvyl activity of E. coli MurA was monitored by coupling phosphate release to cleavage of fluorescent 7-methylguanosine (Sigma) by bacterial purine-nucleoside phosphorylase (PNPase) (Sigma). […] The reactions were monitored by the decrease in fluorescence at 400 nm with excitation set to 300 nm in a FluoroMax-3 spectrofluorometer (HORIBA Jobin Yvon) with excitation and emission bandwidths of 5 nm. […]

B1: E. coli MurA (Escherichia coli K-12) (protein)
chain: MDKFRVQGPTKLQGEVTISGAKNAALPILFAALLAEEPVEIQNVPKLKDVDTSMKLLSQLGAKVERNGSVHIDARDVNVFCAPYDLVKTMRASIWALGPLVARFGQGQVSLPGGCTIGARPVDLHISGLEQLGATIKLEEGYVKASVDGRLKGAHIVMDKVSVGATVTIMCAATLAEGTTIIENAAREPEIVDTANFLITLGAKISGQGTDRIVIEGVERLGGGVYRVLPDRIETGTFLVAAAISRGKIICRNAQPDTLDAVLAKLRDAGADIEVGEDWISLDMHGKRPKAVNVRTAPHPAFPTDMQAQFTLLNLVAEGTGFITETVFENRFMHVPELSRMGAHAEIESNTVICHGVEKLSGAQVMATDLRASASLVLAGCIAEGTTVVDRIYHIDRGYERIEDKLRALGANIERVKGE
Km: 15 µM
